# Source: publication PMC7528018, “Structure of the TFIIIC subcomplex τA provides insights into RNA polymerase III pre-initiation complex formation” (Nature Communications, 2020)
# B1: His_Abox_Bbox (dsDNA)
# DNA 1: CATCTTAGTATAGTGGTTAGTACACATCGTTGTGGCCGATGAAACCCTGGTTCGATTCTAGG
# DNA 2: CCTAGAATCGAACCAGGGTTTCATCGGCCACAACGATGTGTACTAACCACTATACTAAGATG
# B2: Brf1–TBP construct lacking the first 70 amino acids (Zn-ribbon and linker) (other)
# chain: SALESREATLNNARRKLRAVSYALHIPEYITDAAFQWYKLALANNFVQGRRSQNVIASCLYVACRKEKTHHMLIDFSSRLQVSVYSIGATFLKMVKKLHITELPLADPSLFIQHFAEKLDLADKKIKVVKDAVKLAQRMSKDWMFEGRRPAGIAGACILLACRMNNLRRTHTEIVAVSHVAEETLQQRLNEFKNTKAAKLSVQKFRENDVEDGEARPPSFVKNRKKERKIKDSLDKEEMFQTSEEALNKNPILTQVLGEQELSSKEVLFYLKQFSERRARVVERIKATNGIDGENIYHEGSENETRKRKLSESGIVPTLQNIVATVTLGCRLDLKTVALHARNAEYNPKRFAAVIMRIREPKTTALIFASGKMVVTGAKSEDDSKLASRKYARIIQKIGFAAKFTDFKIQNIVGSCDVKFPIRLEGLAFSHGTFSSYEPELFPGLIYRMVKPKIVLLIFVSGKIVLTGAKQREEIYQAFEAIYPVLSEFRKMPRNLHLLPTTDTYLSKVSDDPDNLEDVDDEELNAHLLNEEASKLKERIWIGLNADFLLEQESKRLKQEADIATGNTSVKKKRTRRRNNTRSDEPTKTVDAAAAIGLMSDLQDKSGLHAALKAAEESGDFTTADSVKNMLQKASFSKKINYDAIDGLFR
# B3: His_Abox (dsDNA)
# DNA 1: CATCTTAGTATAGTGGTTAGT
# DNA 2: ACTAACCACTATACTAAGATG
# Tests used:
# [1] = target: holo-TFIIIC Δtail (τ95Δtail) (Saccharomyces cerevisiae, UniProt P33339;P32367;Q12415;P34111;Q06339;Q12308 1-1025;1-592;1-435;1-1160;1-672;1-588); assay: EMSA; 0.5 uM DNA; tail deletion has only a mild effect; τA EMSA: 100 mM NaCl, 20 mM HEPES pH 7.5, 5 mM DTT, 1 h on ice, 10% glycerol added before loading; TFIIIC EMSA: 1 h on ice, buffer not restated; 3-8% Tris-acetate gel in 2.5 mM Tris base, 19 mM glycine, 1 mM DTT; conditions: protein: recombinant; tags: N-terminal TEV-cleavable His tag on τ95; C-terminal TEV-cleavable TwinStrep on τ138; copies: 1;1;1;1;1;1; label: 6FAM at 3' end of non-template strand
# [2] = target: T1, TFIIIC subcomplex τA (τ131, τ95, τ55) (S. cerevisiae, UniProt P33339 1-1025; P32367 1-649; Q12415 1-435); assay: co-sedimentation; 10–30% glycerol gradient without crosslinker, equimolar τA and Brf1–TBPΔN, 75 mM NaCl at mixing, 100 mM NaCl, 20 mM HEPES pH 7.5, 5 mM DTT in the gradient, 16 h at 150,000 x g; fractions on SDS–PAGE, silver stain; apparent stoichiometry; conditions: both partners purified
# T1 construct: τ131, subunit of S. cerevisiae TFIIIC subcomplex τA; insect cell codon-optimized gene; τ95, subunit of S. cerevisiae TFIIIC subcomplex τA; τ55, subunit of S. cerevisiae TFIIIC subcomplex τA; No TEV cleavage of the his-tag is described in the purification; also called wt τA; full-length τA; source: Hi5 insect cells, subunits co-expressed by baculovirus, purified (Ni-NTA, heparin, MonoQ, Superose …)
# [3] = target: τA Δtail (τ95Δtail) (Saccharomyces cerevisiae, UniProt P33339;P32367;Q12415 1-1025;1-592;1-435); assay: EMSA; 1-10 uM protein, 1 uM DNA; much stronger than wt and stronger than Δplug; τA EMSA: 100 mM NaCl, 20 mM HEPES pH 7.5, 5 mM DTT, 1 h on ice, 10% glycerol added before loading; TFIIIC EMSA: 1 h on ice, buffer not restated; 3-8% Tris-acetate gel in 2.5 mM Tris base, 19 mM glycine, 1 mM DTT; conditions: protein: recombinant; tags: N-terminal TEV-cleavable His tag on τ95; copies: 1;1;1; label: 6FAM at 3' end of non-template strand
# [4] = target: τA Δplug (τ95Δplug) (Saccharomyces cerevisiae, UniProt P33339;P32367;Q12415 1-1025;1-521;1-435); assay: EMSA; 1-10 uM protein, 1 uM DNA; much stronger than wt, weaker than Δtail; τA EMSA: 100 mM NaCl, 20 mM HEPES pH 7.5, 5 mM DTT, 1 h on ice, 10% glycerol added before loading; TFIIIC EMSA: 1 h on ice, buffer not restated; 3-8% Tris-acetate gel in 2.5 mM Tris base, 19 mM glycine, 1 mM DTT; conditions: protein: recombinant; tags: N-terminal TEV-cleavable His tag on τ95; copies: 1;1;1; label: 6FAM at 3' end of non-template strand
# Sequence of τA Δplug (τ95Δplug) (P33339 whole entry, stated change not applied, chain 1 of 3): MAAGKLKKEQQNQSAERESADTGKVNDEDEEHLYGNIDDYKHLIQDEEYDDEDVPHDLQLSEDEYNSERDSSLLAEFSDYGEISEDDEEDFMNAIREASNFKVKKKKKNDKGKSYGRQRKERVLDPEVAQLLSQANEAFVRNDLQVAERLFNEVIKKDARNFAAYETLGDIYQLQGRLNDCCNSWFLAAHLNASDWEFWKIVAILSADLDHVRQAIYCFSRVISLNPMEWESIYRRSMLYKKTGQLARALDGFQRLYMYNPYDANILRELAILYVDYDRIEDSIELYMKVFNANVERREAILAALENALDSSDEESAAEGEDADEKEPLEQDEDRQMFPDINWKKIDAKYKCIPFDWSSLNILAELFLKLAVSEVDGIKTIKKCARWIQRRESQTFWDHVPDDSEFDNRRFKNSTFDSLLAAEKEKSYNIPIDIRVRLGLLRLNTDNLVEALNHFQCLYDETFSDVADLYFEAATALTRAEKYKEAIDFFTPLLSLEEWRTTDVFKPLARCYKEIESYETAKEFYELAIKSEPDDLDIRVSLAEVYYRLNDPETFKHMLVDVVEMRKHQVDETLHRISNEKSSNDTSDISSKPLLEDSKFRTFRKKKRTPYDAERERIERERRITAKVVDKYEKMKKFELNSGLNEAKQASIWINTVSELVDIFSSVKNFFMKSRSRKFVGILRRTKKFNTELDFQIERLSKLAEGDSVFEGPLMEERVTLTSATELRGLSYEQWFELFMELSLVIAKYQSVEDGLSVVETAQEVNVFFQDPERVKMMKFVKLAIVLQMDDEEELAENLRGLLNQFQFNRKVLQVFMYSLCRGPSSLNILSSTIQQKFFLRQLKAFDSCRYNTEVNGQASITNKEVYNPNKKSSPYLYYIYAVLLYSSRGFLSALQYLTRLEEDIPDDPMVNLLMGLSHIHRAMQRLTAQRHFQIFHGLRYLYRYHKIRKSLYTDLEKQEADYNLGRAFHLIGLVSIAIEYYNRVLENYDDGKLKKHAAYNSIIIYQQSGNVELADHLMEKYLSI
# Sequence of τA Δplug (τ95Δplug) (P32367 1-521, stated change not applied, chain 2 of 3): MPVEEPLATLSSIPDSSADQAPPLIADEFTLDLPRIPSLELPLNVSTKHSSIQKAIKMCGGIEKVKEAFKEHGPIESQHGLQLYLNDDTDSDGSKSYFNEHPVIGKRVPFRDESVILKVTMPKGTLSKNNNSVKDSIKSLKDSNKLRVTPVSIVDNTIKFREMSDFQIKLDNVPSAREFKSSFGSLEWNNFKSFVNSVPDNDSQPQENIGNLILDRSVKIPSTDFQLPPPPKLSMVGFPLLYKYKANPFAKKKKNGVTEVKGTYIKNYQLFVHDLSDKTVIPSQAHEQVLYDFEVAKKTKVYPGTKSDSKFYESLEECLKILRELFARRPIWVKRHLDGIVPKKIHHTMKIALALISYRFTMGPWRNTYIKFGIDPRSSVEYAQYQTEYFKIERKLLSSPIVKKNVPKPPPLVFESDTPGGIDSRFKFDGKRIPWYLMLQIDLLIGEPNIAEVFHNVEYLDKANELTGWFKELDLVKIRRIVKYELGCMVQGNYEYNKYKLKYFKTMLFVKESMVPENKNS
# Sequence of τA Δplug (τ95Δplug) (Q12415 whole entry, stated change not applied, chain 3 of 3): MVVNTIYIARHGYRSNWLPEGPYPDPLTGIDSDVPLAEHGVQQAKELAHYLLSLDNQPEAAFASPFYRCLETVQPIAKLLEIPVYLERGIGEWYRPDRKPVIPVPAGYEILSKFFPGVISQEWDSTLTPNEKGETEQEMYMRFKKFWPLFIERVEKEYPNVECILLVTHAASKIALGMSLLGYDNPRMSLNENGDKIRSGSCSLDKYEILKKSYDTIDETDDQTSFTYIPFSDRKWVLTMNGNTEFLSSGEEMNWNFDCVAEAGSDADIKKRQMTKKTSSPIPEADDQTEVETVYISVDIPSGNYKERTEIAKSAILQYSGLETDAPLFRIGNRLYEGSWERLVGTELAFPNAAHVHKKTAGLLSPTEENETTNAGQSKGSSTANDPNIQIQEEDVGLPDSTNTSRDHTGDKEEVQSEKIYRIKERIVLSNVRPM
# Sequence of τA Δtail (τ95Δtail) (P33339 whole entry, stated change not applied, chain 1 of 3): as the sequence (P33339 whole entry, stated change not applied, chain 1 of 3) above
# Sequence of τA Δtail (τ95Δtail) (P32367 1-592, stated change not applied, chain 2 of 3): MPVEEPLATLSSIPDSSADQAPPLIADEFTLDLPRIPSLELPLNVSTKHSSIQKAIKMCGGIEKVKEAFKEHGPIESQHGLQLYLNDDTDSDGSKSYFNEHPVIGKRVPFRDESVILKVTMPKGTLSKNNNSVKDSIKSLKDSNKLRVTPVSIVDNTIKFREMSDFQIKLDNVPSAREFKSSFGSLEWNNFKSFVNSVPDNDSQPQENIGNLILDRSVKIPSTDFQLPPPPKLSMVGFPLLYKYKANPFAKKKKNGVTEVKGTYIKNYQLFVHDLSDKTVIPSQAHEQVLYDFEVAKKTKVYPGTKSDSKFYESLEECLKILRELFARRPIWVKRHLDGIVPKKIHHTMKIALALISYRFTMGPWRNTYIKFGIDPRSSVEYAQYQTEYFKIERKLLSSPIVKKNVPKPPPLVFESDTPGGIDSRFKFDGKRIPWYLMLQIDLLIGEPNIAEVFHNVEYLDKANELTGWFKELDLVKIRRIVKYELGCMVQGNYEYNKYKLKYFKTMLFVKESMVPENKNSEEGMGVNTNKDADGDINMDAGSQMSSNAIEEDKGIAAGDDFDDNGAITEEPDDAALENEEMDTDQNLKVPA
# Sequence of τA Δtail (τ95Δtail) (Q12415 whole entry, stated change not applied, chain 3 of 3): as the sequence (Q12415 whole entry, stated change not applied, chain 3 of 3) above
# T1 sequence (P33339 whole entry, chain 1 of 3): as the sequence (P33339 whole entry, stated change not applied, chain 1 of 3) above
# T1 sequence (P32367 whole entry, chain 2 of 3): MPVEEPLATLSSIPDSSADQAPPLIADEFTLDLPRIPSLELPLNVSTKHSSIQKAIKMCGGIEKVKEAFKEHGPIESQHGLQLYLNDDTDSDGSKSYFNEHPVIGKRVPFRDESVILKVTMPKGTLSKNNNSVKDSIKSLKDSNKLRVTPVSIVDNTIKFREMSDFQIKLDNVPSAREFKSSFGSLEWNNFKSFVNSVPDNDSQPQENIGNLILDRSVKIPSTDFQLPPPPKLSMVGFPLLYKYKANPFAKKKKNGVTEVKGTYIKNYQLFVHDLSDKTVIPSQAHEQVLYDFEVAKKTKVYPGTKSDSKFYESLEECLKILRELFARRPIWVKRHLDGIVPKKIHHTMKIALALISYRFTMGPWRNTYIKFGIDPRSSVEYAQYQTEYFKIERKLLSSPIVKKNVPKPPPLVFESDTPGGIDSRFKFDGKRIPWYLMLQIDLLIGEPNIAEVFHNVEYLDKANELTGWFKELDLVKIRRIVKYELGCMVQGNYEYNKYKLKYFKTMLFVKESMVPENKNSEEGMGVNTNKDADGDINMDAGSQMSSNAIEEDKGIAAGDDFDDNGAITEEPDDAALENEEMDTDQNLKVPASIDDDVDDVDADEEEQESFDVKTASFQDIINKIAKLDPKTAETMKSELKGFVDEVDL
# T1 sequence (Q12415 whole entry, chain 3 of 3): as the sequence (Q12415 whole entry, stated change not applied, chain 3 of 3) above
binder,measurement,setting,value
B1,binding result,[1],binds
B2,stoichiometry N,[2],1
B3,binding result,[3],binds
same,binding result,[4],binds
